B1: Annexin A10 (Homo sapiens), Q9UJ72 (parent)
chain: MFCGDYVQGTIFPAPNFNPIMDAQMLGGALQGFDCDKDMLINILTQRCNAQRMMIAEAYQSMYGRDLIGDMREQLSDHFKDVMAGLMYPPPLYDAHELWHAMKGVGTDENCLIEILASRTNGEIFQMREAYCLQYSNNLQEDIYSETSGHFRDTLMNLVQGTREEGYTDPAMAAQDAMVLWEACQQKTGEHKTMLQMILCNKSYQQLRLVFQEFQNISGQDMVDAINECYDGYFQELLVAIVLCVRDKPAYFAYRLYSAIHDFGFHNKTVIRILIARSEIDLLTIRKRYKERYGKSLFHDIRNFASGHYKKALLAICAGDAEDY
partner: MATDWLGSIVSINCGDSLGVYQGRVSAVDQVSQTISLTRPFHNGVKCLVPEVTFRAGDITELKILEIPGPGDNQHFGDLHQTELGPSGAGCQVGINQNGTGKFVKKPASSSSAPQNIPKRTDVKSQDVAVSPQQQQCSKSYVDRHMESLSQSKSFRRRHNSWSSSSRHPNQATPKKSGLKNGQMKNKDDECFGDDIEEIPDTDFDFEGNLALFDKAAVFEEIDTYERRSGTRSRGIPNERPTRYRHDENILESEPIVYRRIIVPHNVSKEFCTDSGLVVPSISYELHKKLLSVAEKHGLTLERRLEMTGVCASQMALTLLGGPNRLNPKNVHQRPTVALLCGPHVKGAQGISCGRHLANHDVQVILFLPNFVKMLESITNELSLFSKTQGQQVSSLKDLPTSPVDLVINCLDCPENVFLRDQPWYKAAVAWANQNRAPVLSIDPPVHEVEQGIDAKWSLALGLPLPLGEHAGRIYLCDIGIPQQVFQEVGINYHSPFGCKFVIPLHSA
B2: Protein-lysine methyltransferase METTL21C (Homo sapiens), Q5VZV1 (parent)
chain: MDVCLSSAQQPGRRGEGLSSPGGWLEAEKKGAPQKDSTGGVLEESNKIEPSLHSLQKFVPTDYASYTQEHYRFAGKEIVIQESIESYGAVVWPGAMALCQYLEEHAEELNFQDAKILEIGAGPGLVSIVASILGAQVTATDLPDVLGNLQYNLLKNTLQCTAHLPEVKELVWGEDLDKNFPKSAFYYDYVLASDVVYHHYFLDKLLTTMVYLSQPGTVLLWANKFRFSTDYEFLDKFKQVFDTTLLAEYPESSVKLFKGILKWD
B3: Keratin, type II cytoskeletal 6A (Homo sapiens), P02538 (parent)
chain: MASTSTTIRSHSSSRRGFSANSARLPGVSRSGFSSVSVSRSRGSGGLGGACGGAGFGSRSLYGLGGSKRISIGGGSCAISGGYGSRAGGSYGFGGAGSGFGFGGGAGIGFGLGGGAGLAGGFGGPGFPVCPPGGIQEVTVNQSLLTPLNLQIDPTIQRVRAEEREQIKTLNNKFASFIDKVRFLEQQNKVLETKWTLLQEQGTKTVRQNLEPLFEQYINNLRRQLDSIVGERGRLDSELRGMQDLVEDFKNKYEDEINKRTAAENEFVTLKKDVDAAYMNKVELQAKADTLTDEINFLRALYDAELSQMQTHISDTSVVLSMDNNRNLDLDSIIAEVKAQYEEIAQRSRAEAESWYQTKYEELQVTAGRHGDDLRNTKQEIAEINRMIQRLRSEIDHVKKQCANLQAAIADAEQRGEMALKDAKNKLEGLEDALQKAKQDLARLLKEYQELMNVKLALDVEIATYRKLLEGEECRLNGEGVGQVNISVVQSTVSSGYGGASGVGSGLGLGGGSSYSYGSGLGVGGGFSSSSGRAIGGGLSSVGGGSSTIKYTTTSSSSRKSYKH
partner: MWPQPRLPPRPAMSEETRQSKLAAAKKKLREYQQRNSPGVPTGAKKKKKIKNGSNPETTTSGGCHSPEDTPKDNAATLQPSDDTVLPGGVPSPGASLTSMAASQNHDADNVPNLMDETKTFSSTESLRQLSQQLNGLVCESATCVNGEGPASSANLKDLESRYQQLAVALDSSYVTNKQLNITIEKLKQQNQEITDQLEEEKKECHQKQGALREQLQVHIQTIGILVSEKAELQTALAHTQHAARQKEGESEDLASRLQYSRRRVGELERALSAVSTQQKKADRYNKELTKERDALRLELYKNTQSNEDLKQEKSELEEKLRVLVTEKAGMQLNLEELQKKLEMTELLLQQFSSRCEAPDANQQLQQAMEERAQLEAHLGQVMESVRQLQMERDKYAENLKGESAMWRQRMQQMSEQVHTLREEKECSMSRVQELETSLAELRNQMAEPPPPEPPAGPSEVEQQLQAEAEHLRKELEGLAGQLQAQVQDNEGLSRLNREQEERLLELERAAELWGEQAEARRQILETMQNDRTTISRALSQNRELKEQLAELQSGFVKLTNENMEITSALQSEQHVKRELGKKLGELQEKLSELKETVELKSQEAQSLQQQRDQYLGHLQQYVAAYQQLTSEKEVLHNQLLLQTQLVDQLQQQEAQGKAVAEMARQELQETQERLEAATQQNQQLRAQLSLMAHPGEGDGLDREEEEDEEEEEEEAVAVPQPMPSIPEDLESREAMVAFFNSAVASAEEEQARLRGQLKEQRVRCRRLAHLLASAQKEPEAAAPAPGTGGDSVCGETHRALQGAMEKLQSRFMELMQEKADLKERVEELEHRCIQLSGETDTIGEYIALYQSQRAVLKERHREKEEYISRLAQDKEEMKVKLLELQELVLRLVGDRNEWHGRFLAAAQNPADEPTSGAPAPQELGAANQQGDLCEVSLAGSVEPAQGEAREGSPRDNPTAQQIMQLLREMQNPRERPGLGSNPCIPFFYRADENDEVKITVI
B4: Ribonuclease inhibitor (Homo sapiens), P13489 (parent)
chain: MSLDIQSLDIQCEELSDARWAELLPLLQQCQVVRLDDCGLTEARCKDISSALRVNPALAELNLRSNELGDVGVHCVLQGLQTPSCKIQKLSLQNCCLTGAGCGVLSSTLRTLPTLQELHLSDNLLGDAGLQLLCEGLLDPQCRLEKLQLEYCSLSAASCEPLASVLRAKPDFKELTVSNNDINEAGVRVLCQGLKDSPCQLEALKLESCGVTSDNCRDLCGIVASKASLRELALGSNKLGDVGMAELCPGLLHPSSRLRTLWIWECGITAKGCGDLCRVLRAKESLKELSLAGNELGDEGARLLCETLLEPGCQLESLWVKSCSFTAACCSHFSSVLAQNRFLLELQISNNRLEDAGVRELCQGLGQPGSVLRVLWLADCDVSDSSCSSLAATLLANHSLRELDLSNNCLGDAGILQLVESVRQPGCLLEQLVLYDIYWSEEMEDRLQALEKDKPSLRVIS
B5: Retinoic acid receptor beta (Homo sapiens), P10826-2 (parent)
chain: MFDCMDVLSVSPGQILDFYTASPSSCMLQEKALKACFSGLTQTEWQHRHTAQSIETQSTSSEELVPSPPSPLPPPRVYKPCFVCQDKSSGYHYGVSACEGCKGFFRRSIQKNMIYTCHRDKNCVINKVTRNRCQYCRLQKCFEVGMSKESVRNDRNKKKKETSKQECTESYEMTAELDDLTEKIRKAHQETFPSLCQLGKYTTNSSADHRVRLDLGLWDKFSELATKCIIKIVEFAKRLPGFTGLTIADQITLLKAACLDILILRICTRYTPEQDTMTFSDGLTLNRTQMHNAGFGPLTDLVFTFANQLLPLEMDDTETGLLSAICLICGDRQDLEEPTKVDKLQEPLLEALKIYIRKRRPSKPHMFPKILMKITDLRSISAKGAERVITLKMEIPGSMPPLIQEMLENSEGHEPLTPSSSGNTAEHSPSISPSSVENSGVSQSPLVQ
partner: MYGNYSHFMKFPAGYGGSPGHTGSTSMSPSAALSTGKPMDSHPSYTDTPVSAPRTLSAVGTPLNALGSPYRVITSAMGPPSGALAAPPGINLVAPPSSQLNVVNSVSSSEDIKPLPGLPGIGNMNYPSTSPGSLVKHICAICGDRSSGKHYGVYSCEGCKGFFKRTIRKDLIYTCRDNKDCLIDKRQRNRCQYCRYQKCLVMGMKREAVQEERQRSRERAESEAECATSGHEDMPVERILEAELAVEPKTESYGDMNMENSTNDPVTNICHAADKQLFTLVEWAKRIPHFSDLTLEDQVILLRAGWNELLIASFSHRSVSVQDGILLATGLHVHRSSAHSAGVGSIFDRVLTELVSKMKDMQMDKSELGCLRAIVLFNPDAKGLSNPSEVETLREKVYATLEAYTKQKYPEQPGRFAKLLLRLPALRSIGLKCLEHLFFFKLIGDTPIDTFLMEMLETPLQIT
B6: E3 ubiquitin-protein ligase TRAIP (Homo sapiens), Q9BWF2 (parent)
chain: MPIRALCTICSDFFDHSRDVAAIHCGHTFHLQCLIQWFETAPSRTCPQCRIQVGKRTIINKLFFDLAQEEENVLDAEFLKNELDNVRAQLSQKDKEKRDSQVIIDTLRDTLEERNATVVSLQQALGKAEMLCSTLKKQMKYLEQQQDETKQAQEEARRLRSKMKTMEQIELLLQSQRPEVEEMIRDMGVGQSAVEQLAVYCVSLKKEYENLKEARKASGEVADKLRKDLFSSRSKLQTVYSELDQAKLELKSAQKDLQSADKEIMSLKKKLTMLQETLNLPPVASETVDRLVLESPAPVEVNLKLRRPSFRDDIDLNATFDVDTPPARPSSSQHGYYEKLCLEKSHSPIQDVPKKICKGPRKESQLSLGGQSCAGEPDEELVGAFPIFVRNAILGQKQPKRPRSESSCSKDVVRTGFDGLGGRTKFIQPTDTVMIRPLPVKPKTKVKQRVRVKTVPSLFQAKLDTFLWS

Variants of: B1
Conditions: with edc3_human EDC3, Q96F86

Variant	effect of a mutation on the interaction
F234S	with no effect

Variants of: B2
Conditions: with eloc_human ELOC

Variant	effect of a mutation on the interaction
G15R	with no effect

Variants of: B3
Conditions: with goga2_human GOLGA2, Q08379

Variant	effect of a mutation on the interaction
L210M	with no effect
A335T	with no effect
R415H	with no effect

Continued, values first:

effect of a mutation on the interaction	Variant
with no effect	V523F
with no effect	T552S
with no effect	R559G

Variants of: B4
Conditions: with sdcb1_human SDCBP

Variant	effect of a mutation on the interaction
R110C	disrupting interaction strength

Variants of: B5
Conditions: with rxrg_human RXRG

Variant	effect of a mutation on the interaction
V83I	with no effect

Variants of: B6
Conditions: with mare2_human MAPRE2, Q15555
Chain of mare2_human MAPRE2, Q15555 (Q15555 whole entry): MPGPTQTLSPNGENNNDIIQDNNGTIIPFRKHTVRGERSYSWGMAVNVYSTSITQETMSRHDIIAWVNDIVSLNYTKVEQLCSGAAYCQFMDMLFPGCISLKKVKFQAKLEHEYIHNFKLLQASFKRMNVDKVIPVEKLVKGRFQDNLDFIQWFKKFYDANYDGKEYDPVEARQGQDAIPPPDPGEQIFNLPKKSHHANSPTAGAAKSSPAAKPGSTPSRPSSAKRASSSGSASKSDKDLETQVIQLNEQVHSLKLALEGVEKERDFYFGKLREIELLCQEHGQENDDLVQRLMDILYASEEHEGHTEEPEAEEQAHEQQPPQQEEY

Variant	effect of a mutation on the interaction
Q428H	with no effect

Reference: IntAct's records for PubMed 31515488
